Assay results taken from publication doi:10.1101/2022.07.14.500127.

Columns and labels:
[1] = target: Vip3Aa Domain I-Domain III truncation variant (Bacillus thuringiensis (Bt 9816C)); experiment: SEC + other: protein thermal shift
[2] = target: trypsin-activated DI-DIII of Vip3Aa (DI-DIII^act) (Bacillus thuringiensis (Bt 9816C)); experiment: SEC
[3] = target: Vip3Aa protoxin (full-length vegetative insecticidal protein Vip3Aa) (Bacillus thuringiensis (Bt 9816C)); experiment: SEC + other: dynamic light scattering

Vip3Aa Domain I-Domain III truncation variant (domain or fragment)
stoichiometry N [1]: 4

trypsin-activated DI-DIII of Vip3Aa (DI-DIII^act) (complex)
stoichiometry N [2]: 4

Vip3Aa protoxin (full-length vegetative insecticidal protein Vip3Aa) (natural protein)
stoichiometry N [3]: 4
